US20110118131A1 (published 2011)

Molecular target: T1, IL-1beta (UniProt P01584 117-269)
T1 construct: also called IL-1β
Experiment: Biacore

Binder | fold difference in affinity vs parental | binding result
XPA23 Fab, heavy chain F33N (Fab, V domains shown) VH: EVQLLESGGGLVQPGGSLRLSCAASGFTFSKYNMFWVRQAPGKGLEWVSVISPSGGMTRYADSVKGRFTISRDNSKNTLYLQMNSLRAEDTAVYYCARVGYGGNSDYWGQGTLVTVSS VL: DIQMTQSPSSVSASVGDRLTIICRASQDINRWLAWYQQTPGNAPKLLIHSATSLQSGVPSRFSGSGSGTDFTLTINSLQPEDFATYYCQQADSFPLTFGGGTKVEIK | 0.97 fold | –
XPA23 Fab, heavy chain F33Q (Fab, V domains shown) VH: EVQLLESGGGLVQPGGSLRLSCAASGFTFSKYQMFWVRQAPGKGLEWVSVISPSGGMTRYADSVKGRFTISRDNSKNTLYLQMNSLRAEDTAVYYCARVGYGGNSDYWGQGTLVTVSS VL: DIQMTQSPSSVSASVGDRLTIICRASQDINRWLAWYQQTPGNAPKLLIHSATSLQSGVPSRFSGSGSGTDFTLTINSLQPEDFATYYCQQADSFPLTFGGGTKVEIK | 0.78 fold | –
XPA23 Fab, heavy chain F33R (Fab, V domains shown) VH: EVQLLESGGGLVQPGGSLRLSCAASGFTFSKYRMFWVRQAPGKGLEWVSVISPSGGMTRYADSVKGRFTISRDNSKNTLYLQMNSLRAEDTAVYYCARVGYGGNSDYWGQGTLVTVSS VL: DIQMTQSPSSVSASVGDRLTIICRASQDINRWLAWYQQTPGNAPKLLIHSATSLQSGVPSRFSGSGSGTDFTLTINSLQPEDFATYYCQQADSFPLTFGGGTKVEIK | – | no binding
XPA23 Fab, heavy chain F33S (Fab, V domains shown) VH: EVQLLESGGGLVQPGGSLRLSCAASGFTFSKYSMFWVRQAPGKGLEWVSVISPSGGMTRYADSVKGRFTISRDNSKNTLYLQMNSLRAEDTAVYYCARVGYGGNSDYWGQGTLVTVSS VL: DIQMTQSPSSVSASVGDRLTIICRASQDINRWLAWYQQTPGNAPKLLIHSATSLQSGVPSRFSGSGSGTDFTLTINSLQPEDFATYYCQQADSFPLTFGGGTKVEIK | 0.73 fold | –
XPA23 Fab, heavy chain F33W (Fab, V domains shown) VH: EVQLLESGGGLVQPGGSLRLSCAASGFTFSKYWMFWVRQAPGKGLEWVSVISPSGGMTRYADSVKGRFTISRDNSKNTLYLQMNSLRAEDTAVYYCARVGYGGNSDYWGQGTLVTVSS VL: DIQMTQSPSSVSASVGDRLTIICRASQDINRWLAWYQQTPGNAPKLLIHSATSLQSGVPSRFSGSGSGTDFTLTINSLQPEDFATYYCQQADSFPLTFGGGTKVEIK | 0.79 fold | –
XPA23 Fab, heavy chain F33Y (Fab, V domains shown) VH: EVQLLESGGGLVQPGGSLRLSCAASGFTFSKYYMFWVRQAPGKGLEWVSVISPSGGMTRYADSVKGRFTISRDNSKNTLYLQMNSLRAEDTAVYYCARVGYGGNSDYWGQGTLVTVSS VL: DIQMTQSPSSVSASVGDRLTIICRASQDINRWLAWYQQTPGNAPKLLIHSATSLQSGVPSRFSGSGSGTDFTLTINSLQPEDFATYYCQQADSFPLTFGGGTKVEIK | 0.77 fold | –
XPA23 Fab, heavy chain F35D (Fab, V domains shown) VH: EVQLLESGGGLVQPGGSLRLSCAASGFTFSKYFMDWVRQAPGKGLEWVSVISPSGGMTRYADSVKGRFTISRDNSKNTLYLQMNSLRAEDTAVYYCARVGYGGNSDYWGQGTLVTVSS VL: DIQMTQSPSSVSASVGDRLTIICRASQDINRWLAWYQQTPGNAPKLLIHSATSLQSGVPSRFSGSGSGTDFTLTINSLQPEDFATYYCQQADSFPLTFGGGTKVEIK | 0.06 fold | –
XPA23 Fab, heavy chain F35E (Fab, V domains shown) VH: EVQLLESGGGLVQPGGSLRLSCAASGFTFSKYFMEWVRQAPGKGLEWVSVISPSGGMTRYADSVKGRFTISRDNSKNTLYLQMNSLRAEDTAVYYCARVGYGGNSDYWGQGTLVTVSS VL: DIQMTQSPSSVSASVGDRLTIICRASQDINRWLAWYQQTPGNAPKLLIHSATSLQSGVPSRFSGSGSGTDFTLTINSLQPEDFATYYCQQADSFPLTFGGGTKVEIK | – | no binding
XPA23 Fab, heavy chain F35H (Fab, V domains shown) VH: EVQLLESGGGLVQPGGSLRLSCAASGFTFSKYFMHWVRQAPGKGLEWVSVISPSGGMTRYADSVKGRFTISRDNSKNTLYLQMNSLRAEDTAVYYCARVGYGGNSDYWGQGTLVTVSS VL: DIQMTQSPSSVSASVGDRLTIICRASQDINRWLAWYQQTPGNAPKLLIHSATSLQSGVPSRFSGSGSGTDFTLTINSLQPEDFATYYCQQADSFPLTFGGGTKVEIK | – | no binding
XPA23 Fab, heavy chain F35K (Fab, V domains shown) VH: EVQLLESGGGLVQPGGSLRLSCAASGFTFSKYFMKWVRQAPGKGLEWVSVISPSGGMTRYADSVKGRFTISRDNSKNTLYLQMNSLRAEDTAVYYCARVGYGGNSDYWGQGTLVTVSS VL: DIQMTQSPSSVSASVGDRLTIICRASQDINRWLAWYQQTPGNAPKLLIHSATSLQSGVPSRFSGSGSGTDFTLTINSLQPEDFATYYCQQADSFPLTFGGGTKVEIK | 0.68 fold | –
XPA23 Fab, heavy chain F35N (Fab, V domains shown) VH: EVQLLESGGGLVQPGGSLRLSCAASGFTFSKYFMNWVRQAPGKGLEWVSVISPSGGMTRYADSVKGRFTISRDNSKNTLYLQMNSLRAEDTAVYYCARVGYGGNSDYWGQGTLVTVSS VL: DIQMTQSPSSVSASVGDRLTIICRASQDINRWLAWYQQTPGNAPKLLIHSATSLQSGVPSRFSGSGSGTDFTLTINSLQPEDFATYYCQQADSFPLTFGGGTKVEIK | 0.86 fold | –
XPA23 Fab, heavy chain F35Q (Fab, V domains shown) VH: EVQLLESGGGLVQPGGSLRLSCAASGFTFSKYFMQWVRQAPGKGLEWVSVISPSGGMTRYADSVKGRFTISRDNSKNTLYLQMNSLRAEDTAVYYCARVGYGGNSDYWGQGTLVTVSS VL: DIQMTQSPSSVSASVGDRLTIICRASQDINRWLAWYQQTPGNAPKLLIHSATSLQSGVPSRFSGSGSGTDFTLTINSLQPEDFATYYCQQADSFPLTFGGGTKVEIK | – | no binding
XPA23 Fab, heavy chain F35R (Fab, V domains shown) VH: EVQLLESGGGLVQPGGSLRLSCAASGFTFSKYFMRWVRQAPGKGLEWVSVISPSGGMTRYADSVKGRFTISRDNSKNTLYLQMNSLRAEDTAVYYCARVGYGGNSDYWGQGTLVTVSS VL: DIQMTQSPSSVSASVGDRLTIICRASQDINRWLAWYQQTPGNAPKLLIHSATSLQSGVPSRFSGSGSGTDFTLTINSLQPEDFATYYCQQADSFPLTFGGGTKVEIK | – | no binding
XPA23 Fab, heavy chain F35S (Fab, V domains shown) VH: EVQLLESGGGLVQPGGSLRLSCAASGFTFSKYFMSWVRQAPGKGLEWVSVISPSGGMTRYADSVKGRFTISRDNSKNTLYLQMNSLRAEDTAVYYCARVGYGGNSDYWGQGTLVTVSS VL: DIQMTQSPSSVSASVGDRLTIICRASQDINRWLAWYQQTPGNAPKLLIHSATSLQSGVPSRFSGSGSGTDFTLTINSLQPEDFATYYCQQADSFPLTFGGGTKVEIK | 0.09 fold | –
XPA23 Fab, heavy chain F35W (Fab, V domains shown) VH: EVQLLESGGGLVQPGGSLRLSCAASGFTFSKYFMWWVRQAPGKGLEWVSVISPSGGMTRYADSVKGRFTISRDNSKNTLYLQMNSLRAEDTAVYYCARVGYGGNSDYWGQGTLVTVSS VL: DIQMTQSPSSVSASVGDRLTIICRASQDINRWLAWYQQTPGNAPKLLIHSATSLQSGVPSRFSGSGSGTDFTLTINSLQPEDFATYYCQQADSFPLTFGGGTKVEIK | – | no binding
XPA23 Fab, heavy chain F35Y (Fab, V domains shown) VH: EVQLLESGGGLVQPGGSLRLSCAASGFTFSKYFMYWVRQAPGKGLEWVSVISPSGGMTRYADSVKGRFTISRDNSKNTLYLQMNSLRAEDTAVYYCARVGYGGNSDYWGQGTLVTVSS VL: DIQMTQSPSSVSASVGDRLTIICRASQDINRWLAWYQQTPGNAPKLLIHSATSLQSGVPSRFSGSGSGTDFTLTINSLQPEDFATYYCQQADSFPLTFGGGTKVEIK | 0.85 fold | –
XPA23 Fab, heavy chain G55D (Fab, V domains shown) VH: EVQLLESGGGLVQPGGSLRLSCAASGFTFSKYFMFWVRQAPGKGLEWVSVISPSDGMTRYADSVKGRFTISRDNSKNTLYLQMNSLRAEDTAVYYCARVGYGGNSDYWGQGTLVTVSS VL: DIQMTQSPSSVSASVGDRLTIICRASQDINRWLAWYQQTPGNAPKLLIHSATSLQSGVPSRFSGSGSGTDFTLTINSLQPEDFATYYCQQADSFPLTFGGGTKVEIK | – | no binding
XPA23 Fab, heavy chain G55E (Fab, V domains shown) VH: EVQLLESGGGLVQPGGSLRLSCAASGFTFSKYFMFWVRQAPGKGLEWVSVISPSEGMTRYADSVKGRFTISRDNSKNTLYLQMNSLRAEDTAVYYCARVGYGGNSDYWGQGTLVTVSS VL: DIQMTQSPSSVSASVGDRLTIICRASQDINRWLAWYQQTPGNAPKLLIHSATSLQSGVPSRFSGSGSGTDFTLTINSLQPEDFATYYCQQADSFPLTFGGGTKVEIK | 0.11 fold | –
XPA23 Fab, heavy chain G55K (Fab, V domains shown) VH: EVQLLESGGGLVQPGGSLRLSCAASGFTFSKYFMFWVRQAPGKGLEWVSVISPSKGMTRYADSVKGRFTISRDNSKNTLYLQMNSLRAEDTAVYYCARVGYGGNSDYWGQGTLVTVSS VL: DIQMTQSPSSVSASVGDRLTIICRASQDINRWLAWYQQTPGNAPKLLIHSATSLQSGVPSRFSGSGSGTDFTLTINSLQPEDFATYYCQQADSFPLTFGGGTKVEIK | 0.11 fold | –
XPA23 Fab, heavy chain G55N (Fab, V domains shown) VH: EVQLLESGGGLVQPGGSLRLSCAASGFTFSKYFMFWVRQAPGKGLEWVSVISPSNGMTRYADSVKGRFTISRDNSKNTLYLQMNSLRAEDTAVYYCARVGYGGNSDYWGQGTLVTVSS VL: DIQMTQSPSSVSASVGDRLTIICRASQDINRWLAWYQQTPGNAPKLLIHSATSLQSGVPSRFSGSGSGTDFTLTINSLQPEDFATYYCQQADSFPLTFGGGTKVEIK | 0.1 fold | –
XPA23 Fab, heavy chain G55Q (Fab, V domains shown) VH: EVQLLESGGGLVQPGGSLRLSCAASGFTFSKYFMFWVRQAPGKGLEWVSVISPSQGMTRYADSVKGRFTISRDNSKNTLYLQMNSLRAEDTAVYYCARVGYGGNSDYWGQGTLVTVSS VL: DIQMTQSPSSVSASVGDRLTIICRASQDINRWLAWYQQTPGNAPKLLIHSATSLQSGVPSRFSGSGSGTDFTLTINSLQPEDFATYYCQQADSFPLTFGGGTKVEIK | 0.9 fold | –
XPA23 Fab, heavy chain G55R (Fab, V domains shown) VH: EVQLLESGGGLVQPGGSLRLSCAASGFTFSKYFMFWVRQAPGKGLEWVSVISPSRGMTRYADSVKGRFTISRDNSKNTLYLQMNSLRAEDTAVYYCARVGYGGNSDYWGQGTLVTVSS VL: DIQMTQSPSSVSASVGDRLTIICRASQDINRWLAWYQQTPGNAPKLLIHSATSLQSGVPSRFSGSGSGTDFTLTINSLQPEDFATYYCQQADSFPLTFGGGTKVEIK | 0.95 fold | –
